According to publication PMC6309500 (Molecular cell, 2018):

Molecular target: FLAG-tagged PACS-2 (UniProt Q86VP3 1-889)
Test: co-IP

Chain of FLAG-tagged PACS-2 (Q86VP3 whole entry): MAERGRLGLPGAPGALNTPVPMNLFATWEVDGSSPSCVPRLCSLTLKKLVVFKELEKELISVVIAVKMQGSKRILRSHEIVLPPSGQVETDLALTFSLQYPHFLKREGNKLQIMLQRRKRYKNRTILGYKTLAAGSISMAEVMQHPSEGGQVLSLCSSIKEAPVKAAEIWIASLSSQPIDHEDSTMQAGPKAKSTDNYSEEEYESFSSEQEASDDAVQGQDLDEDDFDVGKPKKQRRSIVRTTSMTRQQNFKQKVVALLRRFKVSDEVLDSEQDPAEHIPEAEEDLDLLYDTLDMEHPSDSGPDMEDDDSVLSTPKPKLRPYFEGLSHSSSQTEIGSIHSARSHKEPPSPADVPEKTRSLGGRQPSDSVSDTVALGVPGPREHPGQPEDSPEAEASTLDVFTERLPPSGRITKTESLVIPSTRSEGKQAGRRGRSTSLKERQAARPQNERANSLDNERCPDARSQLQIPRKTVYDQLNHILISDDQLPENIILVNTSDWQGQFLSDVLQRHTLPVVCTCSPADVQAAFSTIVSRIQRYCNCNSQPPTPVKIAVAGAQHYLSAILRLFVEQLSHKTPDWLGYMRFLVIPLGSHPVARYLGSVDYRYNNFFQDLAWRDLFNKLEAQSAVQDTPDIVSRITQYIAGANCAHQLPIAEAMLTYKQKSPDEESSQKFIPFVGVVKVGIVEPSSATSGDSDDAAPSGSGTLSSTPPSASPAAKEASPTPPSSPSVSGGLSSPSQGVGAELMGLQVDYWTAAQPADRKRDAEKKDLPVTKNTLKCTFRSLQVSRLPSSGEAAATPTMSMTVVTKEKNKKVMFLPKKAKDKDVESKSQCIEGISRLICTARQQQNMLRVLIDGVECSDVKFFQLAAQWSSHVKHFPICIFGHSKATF

| fold enhancement of the co-IP in the presence of DBC1 [fold] | Binder |
| --- | --- |
| > 8 | V5-tagged mouse SIRT1 (enzyme, UniProt Q923E4 1-737, looked up) MADEVALALQAAGSPSAAAAMEAASQPADEPLRKRPRRDGPGLGRSPGEPSAAVAPAAAGCEAASAAAPAALWREAAGAAASAEREAPATAVAGDGDNGSGLRREPRAADDFDDDEGEEEDEAAAAAAAAAIGYRDNLLLTDGLLTNGFHSCESDDDDRTSHASSSDWTPRPRIGPYTFVQQHLMIGTDPRTILKDLLPETIPPPELDDMTLWQIVINILSEPPKRKKRKDINTIEDAVKLLQECKKIIVLTGAGVSVSCGIPDFRSRDGIYARLAVDFPDLPDPQAMFDIEYFRKDPRPFFKFAKEIYPGQFQPSLCHKFIALSDKEGKLLRNYTQNIDTLEQVAGIQRILQCHGSFATASCLICKYKVDCEAVRGDIFNQVVPRCPRCPADEPLAIMKPEIVFFGENLPEQFHRAMKYDKDEVDLLIVIGSSLKVRPVALIPSSIPHEVPQILINREPLPHLHFDVELLGDCDVIINELCHRLGGEYAKLCCNPVKLSEITEKPPRPQKELVHLSELPPTPLHISEDSSSPERTVPQDSSVIATLVDQATNNNVNDLEVSESSCVEEKPQEVQTSRNVENINVENPDFKAVGSSTADKNERTSVAETVRKCWPNRLAKEQISKRLEGNQYLFVPPNRYIFHGAEVYSDSEDDVLSSSSCGSNSDSGTCQSPSLEEPLEDESEIEEFYNGLEDDTERPECAGGSGFGADGGDQEVVNEAIATRQELTDVNYPSDKS |
| > 8 | V5-tagged human SIRT1 (enzyme, UniProt Q96EB6 1-747, looked up) MADEAALALQPGGSPSAAGADREAASSPAGEPLRKRPRRDGPGLERSPGEPGGAAPEREVPAAARGCPGAAAAALWREAEAEAAAAGGEQEAQATAAAGEGDNGPGLQGPSREPPLADNLYDEDDDDEGEEEEEAAAAAIGYRDNLLFGDEIITNGFHSCESDEEDRASHASSSDWTPRPRIGPYTFVQQHLMIGTDPRTILKDLLPETIPPPELDDMTLWQIVINILSEPPKRKKRKDINTIEDAVKLLQECKKIIVLTGAGVSVSCGIPDFRSRDGIYARLAVDFPDLPDPQAMFDIEYFRKDPRPFFKFAKEIYPGQFQPSLCHKFIALSDKEGKLLRNYTQNIDTLEQVAGIQRIIQCHGSFATASCLICKYKVDCEAVRGDIFNQVVPRCPRCPADEPLAIMKPEIVFFGENLPEQFHRAMKYDKDEVDLLIVIGSSLKVRPVALIPSSIPHEVPQILINREPLPHLHFDVELLGDCDVIINELCHRLGGEYAKLCCNPVKLSEITEKPPRTQKELAYLSELPPTPLHVSEDSSSPERTSPPDSSVIVTLLDQAAKSNDDLDVSESKGCMEEKPQEVQTSRNVESIAEQMENPDLKNVGSSTGEKNERTSVAGTVRKCWPNRVAKEQISRRLDGNQYLFLPPNRYIFHGAEVYSDSEDDVLSSSSCGSNSDSGTCQSPSLEEPMEDESEIEEFYNGLEDEPDVPERAGGAGFGTDGDDQEAINEAISVKQEVTDMNYPSNKS |
